In assay [1] the target is Activin A (R&D Systems, Catalog number 338-AC-050 CF) (UniProt P08476). Put plainly: cell-based or functional assay.
Assay [2] deals with T1, Myostatin (R&D Systems, Catalogue number 788-G8-010/CF) (UniProt O14793).
T1 sequence (looked up): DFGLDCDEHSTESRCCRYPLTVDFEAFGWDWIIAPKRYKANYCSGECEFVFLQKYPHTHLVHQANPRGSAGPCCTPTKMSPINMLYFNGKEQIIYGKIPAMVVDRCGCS
Put plainly: cell-based or functional assay.

The target of another assay is FcRn receptor. Kind of assay: FcRn binding, 'standard methods'.
The target in assay [3] is T1, Myostatin (R&D Systems, Catalogue number 788-G8-010/CF). Kind of assay: BIAcore SPR; fusion captured on anti-human Fc; myostatin as analyte (5-0.31 nM). Background: SPR reads the build-up and loss of mass on a sensor chip optically.
For assay [4], the target named is Fc Gamma Receptor RIA (R&D Systems, Catalog #1257-FC-050) (UniProt P12314). Put plainly: SPR; fusion immobilised on CM5 chip; Fc gamma receptor IA as analyte (62.5-0.49 nM).
Fc Gamma Receptor RIA (R&D Systems, Catalog #1257-FC-050), sequence (P12314 16-288 limits assumed): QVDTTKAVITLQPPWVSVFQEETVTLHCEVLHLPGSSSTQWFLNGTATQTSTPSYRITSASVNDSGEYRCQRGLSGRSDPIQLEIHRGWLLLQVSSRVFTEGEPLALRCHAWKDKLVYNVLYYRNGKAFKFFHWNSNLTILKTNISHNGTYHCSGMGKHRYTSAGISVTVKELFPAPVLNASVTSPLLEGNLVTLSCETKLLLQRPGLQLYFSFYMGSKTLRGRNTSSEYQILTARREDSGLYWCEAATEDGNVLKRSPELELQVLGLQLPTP
The target of assay [5] is Activin A (R&D Systems, Catalog number 338-AC-050 CF) (UniProt P08476). Put plainly: BIAcore SPR; fusion captured on anti-human Fc; activin A as analyte (2.5-0.15 nM); lower end of the printed range 1-2 pM; fusion captured on anti-human Fc, activin A tested 2.5-0.15 nM.
For assay [6] the target is unchanged. Put plainly: BIAcore SPR; fusion captured on anti-human Fc; activin A as analyte (2.5-0.15 nM); upper end of the printed range 1-2 pM; fusion captured on anti-human Fc, activin A tested 2.5-0.15 nM.

Activin A (R&D Systems, Catalog number 338-AC-050 CF), sequence (P08476 311-426): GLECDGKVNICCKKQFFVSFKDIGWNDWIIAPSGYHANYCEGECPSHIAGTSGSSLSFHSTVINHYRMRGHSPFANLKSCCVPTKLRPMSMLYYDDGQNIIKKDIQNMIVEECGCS
monoFS315K(76,81,82)E-hFcLALA (Fc fusion), sequence (chain): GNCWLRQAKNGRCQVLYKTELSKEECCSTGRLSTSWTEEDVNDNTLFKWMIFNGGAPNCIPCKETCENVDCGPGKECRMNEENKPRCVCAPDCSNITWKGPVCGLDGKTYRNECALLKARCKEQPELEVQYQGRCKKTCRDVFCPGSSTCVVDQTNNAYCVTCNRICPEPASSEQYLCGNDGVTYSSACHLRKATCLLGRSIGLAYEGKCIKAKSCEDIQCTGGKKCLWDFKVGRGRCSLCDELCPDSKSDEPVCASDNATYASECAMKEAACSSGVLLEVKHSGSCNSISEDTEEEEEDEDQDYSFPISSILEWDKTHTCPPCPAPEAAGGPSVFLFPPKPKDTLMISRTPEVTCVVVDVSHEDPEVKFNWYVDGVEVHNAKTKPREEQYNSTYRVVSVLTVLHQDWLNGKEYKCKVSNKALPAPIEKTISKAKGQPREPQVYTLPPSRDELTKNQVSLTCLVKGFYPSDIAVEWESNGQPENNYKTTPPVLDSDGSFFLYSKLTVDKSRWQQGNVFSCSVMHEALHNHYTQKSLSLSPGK

The substance FS315K(81,82,84)E-hFcLALA (Fc fusion) displayed an Activin A IC50 (nM), luciferase gene reporter assay (Smad3, A204 cells) in assay [1] of 1 nM. Besides, the Myostatin IC50 (nM), luciferase gene reporter assay (Smad3, A204 cells) in assay [2] was 0.4 nM.

As usually defined, the Kd is the constant that tells how readily two partners part at equilibrium. A high value points to weaker binding. As for “monoFS315K(76,81,82)E-hFcLALA (Fc fusion)”, the Kd was 40.6 nM with FcRn receptor and less than 0.004 nM in assay [3].

In assay [2], FS315ΔHBS-hFcLALA (Fc fusion) showed a Myostatin IC50 (nM), luciferase gene reporter assay (Smad3, A204 cells) of 0.4 nM.

As for monoFS315wt-hFcLALA (Fc fusion), the Kd was 12.8 nM with FcRn receptor and 0.00289 nM in assay [3].

“FS315WT-hFc (from UniProt P19883 30-344) (Fc fusion)” came in with an Activin A IC50 (nM), luciferase gene reporter assay (Smad3, A204 cells) in assay [1] of 0.7 nM. In addition, the Myostatin IC50 (nM), luciferase gene reporter assay (Smad3, A204 cells) in assay [2] is 0.4 nM. For the same substance, the Kd with FcRn receptor is 114 nM; in assay [3], 0.006 to 0.01 nM; in assay [4], 0.14 nM; in assay [5], 0.001 to 0.002 nM; in assay [6] it was 0.001 to 0.002 nM.

For the origin of these results see patent publication US20200247856A1.
